Tests used:
Experiment in all cases: EMSA
[1] = target: Rad52 (Saccharomyces cerevisiae, UniProt P06778)
[2] = target: Rad52 (K43,44R) (Saccharomyces cerevisiae, UniProt P06778 1-471, K10R;K11R)
[3] = target: Rad52 (K43,44,253R) (Saccharomyces cerevisiae, UniProt P06778 1-471, K10R;K11R;K220R)
[4] = target: Rad52 (K253R) (Saccharomyces cerevisiae, UniProt P06778 1-471, K220R)

Measured: binding result

AGCTACCATGCCTGCACGAATTAAGCAATTCGTAATCATGGTCATAGCT (ssDNA) [49-mer ssDNA (Oligo-3)]
binds: all assays above

From publication PMC2919706
